Results from patent publication US20220073599A1 (Hoffmann-La Roche, published 2022).
One block for each binder: values may come before it.

Assays:
Mouse ANG2 = target: T1, Mouse ANG2 (mouse, UniProt O35608 275-496, limits assumed); test: SPR crossreactivity set-up, Fab captured by anti-Fab antibody, Ang2-RBD injected, 25 C
T1 construct: domain: RBD; also called mouse Ang2-RBD
T1 sequence (looked up): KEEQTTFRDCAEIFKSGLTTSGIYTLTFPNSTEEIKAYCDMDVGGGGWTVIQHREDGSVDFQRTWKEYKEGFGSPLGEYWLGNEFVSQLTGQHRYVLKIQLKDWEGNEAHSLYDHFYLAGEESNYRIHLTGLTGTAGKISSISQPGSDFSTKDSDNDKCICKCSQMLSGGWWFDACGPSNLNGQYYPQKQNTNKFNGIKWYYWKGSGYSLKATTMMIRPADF
Protocol: (§1) An anti-Fab capturing antibody (GE Healthcare 28958325) was immobilized to a Series S Sensor Chip C1 (GE Healthcare BR100535) using standard amine coupling chemistry resulting in a surface density of approximately 800 resonance units (RU). As running and dilution buffer, HBS-P+ (10 mM HEPES, 150 mM NaCl pH 7.4, 0.05% Surfactant P20) was used, the temperature of measurement was 25° C. The tested antibody was captured by injecting a 50 nM solution for 60 sec at a flow of 5 μl/min. Association was measured by injection of Ang2-RBD from the indicated species in various concentrations in solution for 180 sec at a flow of 30 μl/min (0.07 nM-50 nM, 1:3 dilution). The dissociation phase was monitored for up to 600 sec and triggered by switching from the sample solution to running buffer at a flow rate of 30 μl/min. The surface was regenerated by injection of 10 mM Glycine pH 2.1 for 60 s at a flow rate of 30 μl/min. Bulk refractive index differences were corrected by subtracting blank injections and by subtracting the response obtained from the reference flow cell without captured antibody. Curve fitting was performed using the 1:1 Langmuir binding model within the Biacore® evaluation software.
(§2) Crossreactivity to VEGF-A and ANG2 from other species was assessed as described above in “Materials & general methods” section.

Rabbit ANG2 = target: T2, Rabbit ANG2 (rabbit, UniProt G1T9B3 281-496); test: as above
T2 construct: domain: RBD; also called rabbit Ang2-RBD
T2 sequence: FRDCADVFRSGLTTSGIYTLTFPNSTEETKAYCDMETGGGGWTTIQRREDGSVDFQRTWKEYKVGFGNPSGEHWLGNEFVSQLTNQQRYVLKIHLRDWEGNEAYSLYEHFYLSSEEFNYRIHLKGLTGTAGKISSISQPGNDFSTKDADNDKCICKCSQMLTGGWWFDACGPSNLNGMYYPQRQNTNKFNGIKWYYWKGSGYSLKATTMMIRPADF
Protocol: as §1, §2

Pig ANG2 = target: T3, Pig ANG2 (pig, UniProt Q9BDY7 275-496, limits assumed); test: as above
T3 construct: domain: RBD; also called pig Ang2-RBD
T3 sequence (looked up): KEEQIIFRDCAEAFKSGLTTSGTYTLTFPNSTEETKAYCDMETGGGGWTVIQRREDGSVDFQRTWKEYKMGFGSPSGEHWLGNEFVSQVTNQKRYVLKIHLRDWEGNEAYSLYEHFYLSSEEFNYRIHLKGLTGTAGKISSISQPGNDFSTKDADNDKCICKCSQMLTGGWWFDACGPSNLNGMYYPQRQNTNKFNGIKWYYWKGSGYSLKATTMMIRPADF
Protocol: as §1, §2

Cyno ANG2 = target: T4, Cyno ANG2 (cyno, UniProt A0A2K5VNX6 281-496); test: as above
T4 construct: domain: RBD; also called cyno Ang2-RBD
T4 sequence: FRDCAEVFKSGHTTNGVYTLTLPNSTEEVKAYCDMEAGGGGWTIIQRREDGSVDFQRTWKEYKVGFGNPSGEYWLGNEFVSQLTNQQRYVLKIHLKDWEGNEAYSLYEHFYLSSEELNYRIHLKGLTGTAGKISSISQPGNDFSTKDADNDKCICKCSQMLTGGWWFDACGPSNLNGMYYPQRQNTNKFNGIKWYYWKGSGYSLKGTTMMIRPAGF
Protocol: as §1, §2

human Ang2-RBD [1] = target: T5, human Ang2-RBD (human, UniProt O15123 275-496, limits assumed); test: as above
T5 construct: also called Human ANG2 (SPR); Angiopoietin 2-RBD
T5 sequence: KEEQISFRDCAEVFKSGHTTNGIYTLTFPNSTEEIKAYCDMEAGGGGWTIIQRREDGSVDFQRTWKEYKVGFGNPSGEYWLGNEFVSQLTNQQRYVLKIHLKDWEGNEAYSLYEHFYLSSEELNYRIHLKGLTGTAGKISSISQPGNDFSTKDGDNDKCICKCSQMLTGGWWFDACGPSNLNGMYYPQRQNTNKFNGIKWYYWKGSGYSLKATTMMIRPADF
Protocol: as §1, §2

human Ang2-RBD [2] = target: T5, human Ang2-RBD; test: SPR, Fab captured by anti-Fab antibody, Ang2-RBD injected, 25 C
Protocol: An anti-Fab capturing antibody (GE Healthcare 28958325) was immobilized to a Series S Sensor Chip C1 (GE Healthcare BR100535) using standard amine coupling chemistry resulting in a surface density of approximately 800 resonance units (RU). As running and dilution buffer, HBS-P+ (10 mM HEPES, 150 mM NaCl pH 7.4, 0.05% Surfactant P20) was used, the temperature of measurement was 25° C. The tested antibody was captured by injecting a 50 nM solution for 60 sec at a flow of 5 μl/min. Association was measured by injection of human Ang2-RBD in various concentrations in solution for 180 sec at a flow of 30 μl/min (0.07 nM-50 nM, 1:3 dilution). The dissociation phase was monitored for up to 900 sec and triggered by switching from the sample solution to running buffer at a flow rate of 30 μl/min. The surface was regenerated by injection of 10 mM Glycine pH 2.1 for 60 s at a flow rate of 30 μl/min. Bulk refractive index differences were corrected by subtracting blank injections and by subtracting the response obtained from the reference flow cell without captured tested antibody. Curve fitting was performed using the 1:1 Langmuir binding model within the Biacore® evaluation software.

Kd (Mouse ANG2): 92 pM
koff (Mouse ANG2): 0.000743 s⁻¹
kon (Mouse ANG2): 8.11e+06 M⁻¹ s⁻¹
t1/2 (Mouse ANG2): 0.267 h
Kd (Rabbit ANG2): 5 pM
koff (Rabbit ANG2): 5.33e-05 s⁻¹
kon (Rabbit ANG2): 9.91e+06 M⁻¹ s⁻¹
t1/2 (Rabbit ANG2): 3.62 h
Kd (Pig ANG2): 13 pM
koff (Pig ANG2): 0.000105 s⁻¹
kon (Pig ANG2): 7.82e+06 M⁻¹ s⁻¹
t1/2 (Pig ANG2): 1.83 h
Kd (Cyno ANG2): 2 pM
koff (Cyno ANG2): 1.56e-05 s⁻¹
kon (Cyno ANG2): 9.98e+06 M⁻¹ s⁻¹
t1/2 (Cyno ANG2): 12.3 h
Kd (human Ang2-RBD [1]): 3 pM
koff (human Ang2-RBD [1]): 2.64e-05 s⁻¹
kon (human Ang2-RBD [1]): 1.02e+07 M⁻¹ s⁻¹
t1/2 (human Ang2-RBD [1]): 7.28 h
B1: bispecific anti-VEGF-A/anti-ANG2 Fab fragment P1AD9820 (Fab, V domains shown)
VH: SEHLVESGGGLVKPGGSLRLSCATADFFEYDDMSWVRQAPGKGLEWVGSISPKGDHKYLNTKFIGRFTISRDDSKNTLYLQMNSLRAEDTAVYYCARDVGFFDWWGQGTLVTVSS
VL: AIYMHQEPSSLSASVGDRVTITCHGSYWLNSEVAWYQQKPGKAPKLLIFDGDFKVYEVPSRFSGSGSHEDYTLTISSLQPEDFATYYCQQYRYHPYTFGHGTKVEIKR
notes: Bispecific Fab with two paratopes in one VH/VL pair; also called P1AD9820 Fab

t1/2 (human Ang2-RBD [2]): 24 s
B2: bispecific anti-VEGF-A/anti-ANG2 Fab fragment P1AA8906 (Fab, V domains shown)
VH: DFQLVESGGGLVKPGGSLRLSCAASYEFEYDDMSWVRQAPGKGLEWVGSISPKGGSTYYNTKFIGRFTISRDNSKNTLYLQMNSLRAEDTAVYYCARDVGFFDMWGQGTLVTVSS
VL: AIYMHQEPSSLSASVGDRVTITCHGSYWLSNYLAWYQQKPGKAPKLLIFDARWLVHGVPSRFSGSGSHEDYTLTISSLQPEDFATYYCQQYRYHPYTFGHGTKVEIKR
notes: Bispecific Fab with two paratopes in one VH/VL pair (DutaFab); CH1 and Ckappa
